≈ marks a conversion by molar mass, not a printed value.
Key:
[1] = Homolysis kinetics / stability of alkoxyamines by EPR; format: physicochemical; details: for activation energy Ea of homolysis: from kd by Arrhenius law
Description: Homolysis constants were measured by Electronic Paramagnetic Resonance (EPR) on a EMX Bruker spectrometer, with O2 as the alkyl radical scavenger, as previously reported. Thermic activation led to the liberation of nitroxide: (2,2,6,6-tetramethylpiperidin-1-yl)oxyl (TEMPO). The details of the kinetic experiments in aqueous or solvent phases and the values of homolysis rate constants (kd), activation energies (Ea), and half-life times (t1/2) are reported in Supplementary Information and Data (see below).
Indeed, the activation energies of these alkoxyamines range from 121 to 140 kJ/mol with half-life times longer than 10 days (Supplementary Table S1). Moreover, the values were measured for a mixture of the two diastereoisomers. […] The solvent effect (i.e., t-BuPh) versus H2O/1-PrOH (99:1) was also investigated. […] Overall, there is no stability concern for these molecules with respect to the subsequent biological studies.
EPR kinetic figures of homolysis rate constants ( kd), activation energies ( Ea) and half-life
Molecule Solvent T (°C)a kd (s-1)b,c Ea (kJ·mol-1)d t1/2(37 °C) (days)

[2] = test system: Ku80 azole-susceptible strain; assay: Exposure of A. fumigatus spores to alkoxyamines, azole-susceptible strain; format: cell-based; details: Aspergillus fumigatus
Description: (§1) Ku80 azole-susceptible strain and FC240 azole-resistant strain were kindly provided by Prof. J.-P. Latge and Dr E. Fréalle (Lille University Hospitals, Lille, France). The latter strain harbors a 34 bp tandem repeat mutation (TR34) in the cyp51A gene promoter combined with a substitution in codon L98H. The strains of A. fumigatus were used for spore preparation as previously described. Briefly, spores were grown from frozen stocks on Sabouraud + Chloramphenicol agar tubes (BioMérieux, Marcy l’Etoile, France) at 37 °C for 7 days. Next, conidia were collected by scraping and suspending in PBS containing 0.01% Tween 20 (Sigma-Aldrich®, St. Louis, MO, USA). Spore counting was performed using a Kova® hemacytometer, and aliquots of 10^6 spores were prepared.
(§2) A. fumigatus spores were exposed to various concentrations of alkoxyamines (1, 10, 100, and 1000 µM), with each concentration in triplicate. Controls were grown alone (without alkoxyamine treatment) or exposed to the antifungal voriconazole under the same experimental conditions. Briefly, the reactions were performed in well plates in a total volume of 250 μL RPMI medium. At the end of the incubation time period (48 h), the optical densities (OD600 nm) of scrapped cultures were recorded in one set of the reactions using a spectrophotometer (Thermo Fisher Scientific, Illkirch, France). […] Experiments were repeated at least three times.

[3] = test system: FC240 azole-resistant strain; assay: Exposure of A. fumigatus spores to alkoxyamines, azole-resistant strain; format: cell-based; details: Aspergillus fumigatus
Description: as §1, §2

[4] = t-BuPh, mixture of two diastereoisomers
[5] = H2O/1-PrOH 99:1, extrapolated to 37 °C
[6] = t-BuPh/DCM 99:1, extrapolated to 37 °C

Row | Compound | activation energy Ea of homolysis [1, 4] [kcal/mol] | half-life time t1/2 (37 °C) of homolysis [1, 6] [days] | activation energy Ea of homolysis ([1]; t-BuPh/DCM 99:1) [kcal/mol] | also measured
1 | CC(ON1C(C)(C)CCCC1(C)C)c1ccc(NC(=O)[C@@H]2CCCN2C(=O)CNC(=O)OCC2c3ccccc3-c3ccccc32)cc1 (stereo partly shown) [4a] | 33.34 |  |  | 
2 | CC(ON1C(C)(C)CCCC1(C)C)c1ccc(NC(=O)[C@@H]2CCCN2C(=O)[C@H](C)NC(=O)OCC2c3ccccc3-c3ccccc32)cc1 (stereo partly shown) [4b] | 33.15 |  |  | 
3 | CC(ON1C(C)(C)CCCC1(C)C)c1ccc(NC(=O)[C@@H]2CCCN2C(=O)CNC(=O)CCC(=O)O)cc1 (stereo partly shown) [VIa] |  | 1519 | 32.15 | half-life time t1/2 (37 °C) of homolysis [1, 5]: 10 days; activation energy Ea of homolysis ([1]; H2O/1-PrOH 99:1): 29.06 kcal/mol
4 | CC(ON1C(C)(C)CCCC1(C)C)c1ccc(NC(=O)[C@@H]2CCCN2C(=O)[C@H](C)NC(=O)CCC(=O)O)cc1 (stereo partly shown) [VIb] |  | 3632 | 32.7 | half-life time t1/2 (37 °C) of homolysis [1, 5]: 199 days; activation energy Ea of homolysis ([1]; H2O/1-PrOH 99:1): 30.9 kcal/mol
5 | CC(ON1C(C)(C)CCCC1(C)C)c1ccc(NC(=O)[C@@H]2CCCN2C(=O)OC(C)(C)C)cc1 (stereo partly shown) [compound 2] | 32.93 |  |  | half-life time t1/2 (37 °C) of homolysis ([1]; t-BuPh, extrapolated to 37 °C): 5395 days
6 | CC(ON1C(C)(C)CCCC1(C)C)c1ccc(NC(=O)[C@@H]2CCCN2)cc1 (stereo partly shown) [compound 3] |  | 2554 | 32.48 | 
7 | C[C@@H](c1ncncc1F)[C@](O)(Cn1cncn1)c1ccc(F)cc1F [voriconazole] |  |  |  | MIC [2]: 0.25 µg/mL (≈ 0.716 µM); MIC [3]: 4 µg/mL (≈ 11.5 µM)
